Data on four molecules can be found in patent publication US10808024B2, “Antibodies against immunocomplexes comprising cyanobacterial cyclic peptide hepatotoxins” (priority 2015, dated 2020).

“Also recorded” adds a separate entry of the source.

What all share (type): binding
Assay [1] deals with immunocomplex of CCPH variant and biotinylated anti-Adda mAb. Kind of assay: Quantitative lateral flow test with streptavidin up-converting nanoparticles.
In assay [2] the test system is immunocomplexes of MC-XZ and Nod-R with anti-Adda mAb. Kind of assay: Cross-reactivity profile of anti-IC binders by single-step non-competitive assay (FIG. 5). Particulars: toxin 0.1 to 60 μg/L.
Assay [3] deals with immunocomplexes of CCPH variants and anti-Adda mAb. Kind of assay: Screening and cross-reactivity studies of anti-IC scFv-AP binders, specificity class.
Assay [4] relates to CCPH in unknown water samples, immunocomplex with anti-Adda mAb. Kind of assay: Anti-IC immunoassay profiling of blinded water samples (Abraxis proficiency testing). Conditions: sample MC-TK8, MC-LR + MC-RR + MC-YR, 4 + 1 + 1 μg/l.

With `C/C=C1/C(=O)N[C@@H](C(=O)O)[C@H](C)C(=O)N[C@@H](CCCNC(=N)N)C(=O)N[C@@H](/C=C/C(C)=C/[C@H](C)[C@H](Cc2ccccc2)OC)[C@H](C)C(=O)N[C@@H](C(=O)O)CCC(=O)N1C` [Nodularin, reference compound], the Signal-to-background ratio in assay [1] is 38.

B1: SA58A12: XR subgroup-specific anti-IC antibody (antibody, V domains shown)
VH: EVQLLESGGGLVQPGGSLRLSCAASGFTFSNYGMHWVRQAPGKGLEWVSEIWPNNGTTNYADSVKGRFTISRDNSKNTLYLQMNSLRAEDTAVYYCARESGQWWYGVFDYWGQGTLVTVSS
VL: EIVLTQSPGTLSLSPGERATLSCRASQSVSSSNLAWYQQKPGQAPRLLIYGASSRATGVPDRFSGSGSGTDFTLTISRLEPEDFAVYYCQQSSSYPWTFGQGTKVEIKRT
modifications: Clone SA58A12; DOMAIN (31)..(35) CDR1; DOMAIN (50)..(65) CDR2; DOMAIN (98)..(110) CDR3; DOMAIN (24)..(35) CDR1; DOMAIN (51)..(57) CDR2; DOMAIN (90)..(98) CDR3
Consider B1, for which the “Specificity (cross-reactive pattern)” value in assay [2] is “specific towards MC-XZ where Z=R (Arg) and also towards Nod-R”. For the same molecule, in assay [3], the “Specificity of anti-IC antibody (CCPH immunocomplexes recognized)” value (shortened to “Specificity of anti-IC antibody”) is “specific for a subgroup XR”.

B2: SA56B8: variant-specific anti-IC antibody, MC-LR (antibody, V domains shown)
VH: EVQLLESGGGLVQPGGSLRLSCAASGFTFSDYWMHWVRQAPGKGLEWVSYINPYGGYTDYADSVKGRFTISRDNSKNTLYLQMNSLRAEDTAVYYCARYVRRHFDYWGQGTLVTVSS
VL: EIVLTQSPGTLSLSPGERATLSCRASQSVSSSYLAWYQQKPGQAPRLLIYGASSRATGVPDRFSGSGSGTDFTLTISRLEPEDFAVYYCQQSSSYPWTFGQGTKVEIKRT
modifications: Clone SA56B8; DOMAIN (31)..(35) CDR1; DOMAIN (50)..(66) CDR2; DOMAIN (99)..(106) CDR3; DOMAIN (24)..(35) CDR1; DOMAIN (51)..(57) CDR2; DOMAIN (90)..(98) CDR3
As to B2, the “Signal (%) with MC-LW” value in assay [2] (MC-LW) is given as “below 20%”. For the same molecule, the “Specificity (cross-reactive pattern)” value in assay [2] was “MC-LR and MC-dmLR specific”. Further, in assay [3], the “Specificity of anti-IC antibody” value is recorded as “recognize immunocomplexes comprising MC-LR; also recorded: MC-LR specific”.

B3: SA41B5: variant-specific anti-IC antibody, MC-RR (antibody, V domains shown)
VH: EVQLLESGGGLVQPGGSLRLSCAASGFTFSSDVMHWVRQAPGKGLEWVSVINPYDGSTYYADSVKGRFTISRDNSKNTLYLQMNSLRAEDTAVYYCARAVAGQGGYFDYWGQGTLVTVSS
VL: EIVLTQSPGTLSLSPGERATLSCRASQSVSSSNLAWYQQKPGQAPRLLIYGASSRATGVPDRFSGSGSGTDFTLTISRLEPEDFAVYYCQQSSSLPWTFGQGTKVEIKRT
modifications: Clone SA41B5; DOMAIN (31)..(35) CDR1; DOMAIN (50)..(66) CDR2; DOMAIN (99)..(109) CDR3; DOMAIN (24)..(35) CDR1; DOMAIN (51)..(57) CDR2; DOMAIN (90)..(98) CDR3
Take B3: the “Specific anti-IC assay result” value in assay [4] is listed as “positive”. Also, the “Specificity of anti-IC antibody” value in assay [3] is listed as “recognize immunocomplexes comprising MC-RR; also recorded: MC-RR specific”.
